Assay results taken from PMC9638019, “The archetypal gene transfer agent RcGTA is regulated via direct interaction with the enigmatic RNA polymerase omega subunit”.
Each block holds one molecule with its values, some of them ahead of it.

Columns and labels:
[1] = target: MBP-GafA-C^221–382 (R. capsulatus); experiment: SEC; analytical gel filtration, Superdex 200 increase 10/200 GL, MBP binding buffer (200 mM NaCl, 20 mM Tris, 1 mM EDTA; pH 7.4); molecular weight estimated from a standard curve
[2] = target: MBP-GafA-Cx^87–382 (R. capsulatus); experiment: as above
[3] = target: Maltose Binding Protein-GafA fusion protein (R. capsulatus); experiment: as above
[4] = target: T1, GafA-Nc1-86 (UniProt D5AUH1 1-86); experiment: EMSA; non-specific: shift lost with 500-fold non-specific competitor; 25 mM HEPES pH 8.0, 50 mM K-glutamate, 50 mM MgSO4, 1 mM DTT, 0.1 mM EDTA, 0.05% Triton X-100, 4% glycerol, 1 ug poly dI:dC per 10 ul, 80 nM Cy5-dsDNA, 30 min room temperature; 7% acrylamide, 1x TBE; conditions: protein: recombinant; tags: none (MBP removed with 3C protease); label: 5'-Cy5 on one strand; blunt
T1 sequence: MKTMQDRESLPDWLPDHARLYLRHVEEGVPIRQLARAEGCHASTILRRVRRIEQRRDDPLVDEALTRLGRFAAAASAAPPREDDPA

[5] = target: T2, MBP-GafA-C221-382 (UniProt D5AUH1 221-382); experiment: EMSA; poly dI:dC; 25 mM HEPES pH 8.0, 50 mM K-glutamate, 50 mM MgSO4, 1 mM DTT, 0.1 mM EDTA, 0.05% Triton X-100, 4% glycerol, 1 ug poly dI:dC per 10 ul, 80 nM Cy5-dsDNA, 30 min room temperature; 7% acrylamide, 1x TBE; conditions: protein: recombinant; tags: N-terminal MBP; chain copies: 2; label: 5'-Cy5 on one strand; blunt
T2 sequence: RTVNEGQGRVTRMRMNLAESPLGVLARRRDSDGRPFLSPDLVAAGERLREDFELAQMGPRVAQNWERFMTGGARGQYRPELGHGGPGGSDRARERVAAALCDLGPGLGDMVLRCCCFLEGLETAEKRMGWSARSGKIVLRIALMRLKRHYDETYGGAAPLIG

[6] = target: T1, GafA-Nc1-86; experiment: EMSA; specific: shift remains with 500-fold non-specific competitor; 25 mM HEPES pH 8.0, 50 mM K-glutamate, 50 mM MgSO4, 1 mM DTT, 0.1 mM EDTA, 0.05% Triton X-100, 4% glycerol, 1 ug poly dI:dC per 10 ul, 80 nM Cy5-dsDNA, 30 min room temperature; 7% acrylamide, 1x TBE; conditions: protein: recombinant; tags: none (MBP removed with 3C protease); label: 5'-Cy5 on one strand; blunt
[7] = target: T1, GafA-Nc1-86; experiment: EMSA; non-specific; 25 mM HEPES pH 8.0, 50 mM K-glutamate, 50 mM MgSO4, 1 mM DTT, 0.1 mM EDTA, 0.05% Triton X-100, 4% glycerol, 1 ug poly dI:dC per 10 ul, 80 nM Cy5-dsDNA, 30 min room temperature; 7% acrylamide, 1x TBE; conditions: protein: recombinant; tags: none (MBP removed with 3C protease); label: 5'-Cy5 on one strand; blunt

stoichiometry N [1]: 2
Molecule: MBP-GafA-C^221–382 (domain or fragment)

stoichiometry N [2]: 2
Molecule: MBP-GafA-Cx^87–382 (domain or fragment)

stoichiometry N [3]: 2
Molecule: Maltose Binding Protein-GafA fusion protein (natural protein)

B1: pGTA4 (dsDNA)
DNA 1: TTCATTTCGCTCGTGCGGACAGGCATGAGAGGCGGGTCACGCAAGACATG
DNA 2: CATGTCTTGCGTGACCCGCCTCTCATGCCTGTCCGCACGAGCGAAATGAA
binding result [4]: binds

B2: pGTA2 (dsDNA)
DNA 1: TTTGCGAACGCTTCAAGGTAGAGATAAGGCATGCTAGGAGAGGTGGGCAA
DNA 2: TTGCCCACCTCTCCTAGCATGCCTTATCTCTACCTTGAAGCGTTCGCAAA
binding result [5]: binds | binding result [4]: binds

B3: pGTA3 (dsDNA)
DNA 1: GCGCCGCGGGTGACCGTGTGCGCTTTTTTCATTTCGCTCGTGCGGACAGG
DNA 2: CCTGTCCGCACGAGCGAAATGAAAAAAGCGCACACGGTCACCCGCGGCGC
binding result [6]: binds

B4: pGafA1 (dsDNA)
DNA 1: TCGAGATCGCCCCATTTCTTAACCAAGGGGTAACCAAAGCAACCCACGGT
DNA 2: ACCGTGGGTTGCTTTGGTTACCCCTTGGTTAAGAAATGGGGCGATCTCGA
binding result [7]: binds

B5: pGafA3 (dsDNA)
DNA 1: CGCTCAACCGAACGCTGCGTTTGGAAATCTTTAGAGTTTATAAAGAATTT
DNA 2: AAATTCTTTATAAACTCTAAAGATTTCCAAACGCAGCGTTCGGTTGAGCG
binding result [5]: binds

B6: pGafA2 (dsDNA)
DNA 1: TGCAGATGCCGTTTGCGCTATCTGACTGCCAGCCTGTCGATGGGAGACCGGAGATGAAGA
DNA 2: TCTTCATCTCCGGTCTCCCATCGACAGGCTGGCAGTCAGATAGCGCAAACGGCATCTGCA
binding result [7]: binds

B7: pGTA1 (dsDNA)
DNA 1: TCCGGGGTTTTTTCTTTTCAGCGGGTGCAACCCTGAATATAGCACTTGAC
DNA 2: GTCAAGTGCTATATTCAGGGTTGCACCCGCTGAAAAGAAAAAACCCCGGA
binding result [6]: binds
